This experiment addresses T1, HA-UbVS (HA-tagged ubiquitin vinyl sulfone activity probe) (UniProt P0CG48 1-75, C-terminal vinyl sulfone (VS) electrophilic trap).
T1 construct: Bought from Boston Biochem. Reacts covalently with the active site cysteine after specific recognition of Ub; also called Ub-vinyl sulfone
The experiment is described as follows: HA-UbVS activity probe labeling, gel shift. From the text: Reactions were terminated by the addition of SDS loading buffer.
In general terms: Mobility shift assays separate free from complexed probe on a gel.

B1: Parkin RBR (residues 238-465) (enzyme, UniProt O60260 238-465, looked up)
chain: CITCTDVRSPVLVFQCNSRHVICLDCFHLYCVTRLNDRQFVHDPQLGYSLPCVAGCPNSLIKELHHFRILGEEQYNRYQQYGAEECVLQMGGVLCPRPGCGAGLLPEPDQRKVTCEGGNGLGCGFAFCRECKEAYHEGECSAVFEASGTTTQAYRVDERAAEQARWEAASKETIKKTTKPCPRCHVPVEKNGGCMHMKCPQPQCRLEWCWNCGCEWNRVCMGDHWFDV
notes: range 238-465; also called RBR domain of Parkin
In the case of B1, the binding result is reported as “binds”.
